Positions count from the first letter of the chain named. Values joined by “and” are separate entries in the source; they are usually repeats but may differ in a detail not shown here. Equal entries are not always repeated. Values belong to the binder of their own block, whether it stands above or below them.
Columns and labels:
[1] = target: T1, full-length 2N4R wild-type tau (human, UniProt P10636-8 1-441, Cy5 (Cyanine5 NHS ester) label in MST); test: cell-based or functional assay
[2] = target: T1, full-length 2N4R wild-type tau; test: MST; Cy5-labelled wild-type or mutant tau/tauRD titrated with a serial two-fold dilution of DnaJC7 or single DnaJC7 domains; Monolith NT.115; technical triplicates; fit in PALMIST with a 1:1 binding model; conditions: both partners purified
[3] = target: T2, recombinant tau monomer seed (human, UniProt P10636-8 1-441, Cy5 (Cyanine5 NHS ester) label in MST); test: as above; conditions: both partners purified
T2 construct: Probably made from the full-length 2N4R tau of m5; the methods say only 'wild-type tau'; also called tau monomer seeds; tau seeds; source: wild-type tau from E. coli BL21 (DE3) incubated 1:1 with heparin for 1 h at 37 °C, isolated on Superdex 200
T2 sequence (P10636 other isoform, or with tags, fused parts or gaps): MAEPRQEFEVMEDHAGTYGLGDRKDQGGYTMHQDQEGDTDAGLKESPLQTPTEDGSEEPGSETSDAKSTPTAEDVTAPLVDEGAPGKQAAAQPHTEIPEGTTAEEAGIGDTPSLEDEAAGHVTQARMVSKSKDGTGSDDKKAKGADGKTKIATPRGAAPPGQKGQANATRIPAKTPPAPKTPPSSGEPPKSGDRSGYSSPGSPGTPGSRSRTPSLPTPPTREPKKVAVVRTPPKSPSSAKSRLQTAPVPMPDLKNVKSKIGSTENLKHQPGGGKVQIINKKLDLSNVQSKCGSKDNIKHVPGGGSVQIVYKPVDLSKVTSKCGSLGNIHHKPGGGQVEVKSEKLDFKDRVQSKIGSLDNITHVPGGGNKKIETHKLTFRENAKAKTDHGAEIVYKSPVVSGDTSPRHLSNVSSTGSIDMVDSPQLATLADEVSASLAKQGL

[4] = target: T3, full-length 2N4R P301L tau (human, UniProt P10636-8 1-441, P301L, Cy5 (Cyanine5 NHS ester) label in the MST assays; unlabelled in cross-linking and aggregation assays); test: MST; WT tau or P301L tau labelled with Cyanine5 NHS ester dye (Cy5) and titrated by a serial two-fold dilution of DnaJC7 domains; n=3; Nanotemper Monolith NT.115; 1:1 binding model; conditions: both partners purified
T3 construct: microtubule-associated protein tau, 2N4R isoform, with the frontotemporal dementia disease-associated P301L mutation; source: E. coli BL21 (DE3), pET28b, purified
T3 sequence (P10636 other isoform, or with tags, fused parts or gaps P301L | P301L | P301L P301L): as the sequence (P10636 other isoform, or with tags, fused parts or gaps) above, with P301L counted along it

[5] = target: T4, full-length 2N4R P301L tau (human, UniProt P10636-8 1-441, P301L, Cy5 (Cyanine5 NHS ester) label in MST); test: MST; Cy5-labelled wild-type or mutant tau/tauRD titrated with a serial two-fold dilution of DnaJC7 or single DnaJC7 domains; Monolith NT.115; technical triplicates; fit in PALMIST with a 1:1 binding model; conditions: both partners purified
T4 construct: microtubule-associated protein tau, 2N4R isoform, full length, with the disease-associated P301L mutation; also called full-length P301L tau mutant; source: E. coli BL21 (DE3), pET28b, purified
T4 sequence (P10636 other isoform, or with tags, fused parts or gaps P301L | P301L | P301L P301L): as the sequence (P10636 other isoform, or with tags, fused parts or gaps) above, with P301L counted along it

[6] = target: T5, full-length 2N4R wild-type tau (human, UniProt P10636-8 1-441, Cy5 (Cyanine5 NHS ester) label in the MST assays; unlabelled in cross-linking and aggregation assays); test: MST; WT tau or P301L tau labelled with Cyanine5 NHS ester dye (Cy5) and titrated by a serial two-fold dilution of DnaJC7 domains; n=3; Nanotemper Monolith NT.115; 1:1 binding model; conditions: both partners purified
T5 construct: microtubule-associated protein tau, 2N4R isoform; also called WT tau; WT TAU; source: E. coli BL21 (DE3), pET28b, purified
T5 sequence (P10636 other isoform, or with tags, fused parts or gaps): as the sequence (P10636 other isoform, or with tags, fused parts or gaps) above

T1 sequence (P10636 other isoform, or with tags, fused parts or gaps): as above

B1: DnaJC7 (full-length, wild type, recombinant) (natural protein, UniProt Q99615 1-494, looked up)
chain: MAAAAECDVVMAATEPELLDDQEAKREAETFKEQGNAYYAKKDYNEAYNYYTKAIDMCPKNASYYGNRAATLMMLGRFREALGDAQQSVRLDDSFVRGHLREGKCHLSLGNAMAACRSFQRALELDHKNAQAQQEFKNANAVMEYEKIAETDFEKRDFRKVVFCMDRALEFAPACHRFKILKAECLAMLGRYPEAQSVASDILRMDSTNADALYVRGLCLYYEDCIEKAVQFFVQALRMAPDHEKACIACRNAKALKAKKEDGNKAFKEGNYKLAYELYTEALGIDPNNIKTNAKLYCNRGTVNSKLRKLDDAIEDCTNAVKLDDTYIKAYLRRAQCYMDTEQYEEAVRDYEKVYQTEKTKEHKQLLKNAQLELKKSKRKDYYKILGVDKNASEDEIKKAYRKRALMHHPDRHSGASAEVQKEEEKKFKEVGEAFTILSDPKKKTRYDSGQDLDEEGMNMGDFDPNNIFKAFFGGPGGFSFEASGPGNFFFQFG
notes: DnaJC7, class-C J-domain protein with TPR1, TPR2a, TPR2b and a C-terminal J domain; called full-length DnaJC7; Plasmid was a gift (A. Joachimiak); also called DnaJC7WT; WT DnaJC7
ThT fluorescence of 4.4 µM WT tau seeded with 50 nM tau monomer seeds with equimolar DnaJC7WT over 100 h, relative to the seeded tau control [1]: 20% | Kd [2]: 471 nM and 343 nM | Kd [3]: 15500 ± 2200 nM

B5: DnaJC7 TPR1 domain (20-156) (domain or fragment, UniProt Q99615 20-156, looked up)
chain: DDQEAKREAETFKEQGNAYYAKKDYNEAYNYYTKAIDMCPKNASYYGNRAATLMMLGRFREALGDAQQSVRLDDSFVRGHLREGKCHLSLGNAMAACRSFQRALELDHKNAQAQQEFKNANAVMEYEKIAETDFEKR
notes: DnaJC7, TPR1 domain, residues 20-156; also called TPR1_(20-156); not shown: His tag (from the vector pMCSG7)
Kd [4]: 404 nM

B6: DnaJC7 TPR1 domain (TPR1 20-156) (domain or fragment, UniProt Q99615 20-156, looked up)
chain: B5 chain
notes: DnaJC7 residues 20-156, TPR1 domain
Kd [2]: 84 nM | fold increase in binding affinity relative to full-length DnaJC7 [5]: > 12 fold

B7: DnaJC7 TPR2a domain (141-270) (domain or fragment, UniProt Q99615 141-270, looked up)
chain: AVMEYEKIAETDFEKRDFRKVVFCMDRALEFAPACHRFKILKAECLAMLGRYPEAQSVASDILRMDSTNADALYVRGLCLYYEDCIEKAVQFFVQALRMAPDHEKACIACRNAKALKAKKEDGNKAFKEG
notes: DnaJC7, TPR2a domain, residues 141-270; also called TPR2a_(141-270); not shown: His tag (from the vector pMCSG7)
Kd [6]: 202 nM | Kd [4]: 670 nM

B9: DnaJC7 J domain (JD 380-494) (domain or fragment, UniProt Q99615 380-494, looked up)
chain: KDYYKILGVDKNASEDEIKKAYRKRALMHHPDRHSGASAEVQKEEEKKFKEVGEAFTILSDPKKKTRYDSGQDLDEEGMNMGDFDPNNIFKAFFGGPGGFSFEASGPGNFFFQFG
notes: DnaJC7 residues 380-494, C-terminal J domain; also called J domain_(380-494)
Kd [2]: 8200 nM | Kd [5]: 28200 nM

Continued, values first:

Kd [2]: 6000 ± 1200 nM
B2: DnaJC7_(TPR2b_mut) (full-length DnaJC7 with six alanine mutations in the TPR2b binding groove) (natural protein, UniProt Q99615 1-494, looked up)
chain: B1 chain with K260A, N264A, F267A, K268A, E269A, Y272A
notes: also called DnaJC7_(TPR2_mut); source: recombinant from pET29b (NdeI/XhoI)

Kd [4]: 507 nM
B3: DnaJC7 TPR2b domain (255-370) (domain or fragment, UniProt Q99615 255-370, looked up)
chain: ALKAKKEDGNKAFKEGNYKLAYELYTEALGIDPNNIKTNAKLYCNRGTVNSKLRKLDDAIEDCTNAVKLDDTYIKAYLRRAQCYMDTEQYEEAVRDYEKVYQTEKTKEHKQLLKNA
notes: also called TPR2b_(255-370); TPR2b_(253-370); not shown: His tag (from the vector pMCSG7)

Kd [2]: 75 nM | fold increase in binding affinity relative to full-length DnaJC7 [5]: > 12 fold
B4: DnaJC7 TPR2b domain (TPR2b 255-370) (domain or fragment, UniProt Q99615 255-370, looked up)
chain: B3 chain
notes: also called TPR2b_(253-370)

fold tighter binding than full-length DnaJC7 [2]: > 2 fold | fold increase in binding affinity relative to full-length DnaJC7 [5]: > 12 fold
B8: DnaJC7 TPR2a domain (TPR2a 141-270) (domain or fragment, UniProt Q99615 141-270, looked up)
chain: B7 chain
notes: DnaJC7 residues 141-270, TPR2a domain
